The record followed here is patent US7223734B2, “Plasma protein-binding ligands” (The American National Red Cross, priority 2002, dated 2007).

Test [1] addresses T1, API (Homo sapiens, UniProt P01009).
T1 construct: from tissue; host or cells: human plasma (whole, fibrinogen-depleted or F1-Apo-depleted)
Briefly: Purification of API from F1-Apo-depleted plasma on AKVSKG column (Example 7). In kind it is binding. As for the experimental part: (§1) Conditions that prevented the binding of albumin from F1-Apo depleted plasma were identified. The capture of albumin by AKVSKG (SEQ ID NO: 45) and D-WWLHIN (SEQ ID NO: 33) can be prevented in the presence of 50 mM caproic acid or 1.0–2.2 M NaCl, respectively. An example for API purification with AKVSKG (SEQ ID NO: 45) is provided. F1-Apo-depleted plasma (10.7 ml) containing 50 mM caproic acid, was applied at 0.4 ml/min (LV=30 cm/h; RT=5.1) onto a 2.0 ml column (CF=0.785 cm^2) that had been equilibrated with 0.14 M NaCl, 0.020 M sodium citrate, pH 7.0 (EQ buffer). After the column was washed with 19 CVs of EQ buffer to baseline, API protein was eluted with 2.0 M NaCl, 0.020 M sodium citrate, pH 6.0. The column was regenerated with 2.0 M guanidine-HCl, 2% Sarkosyl and 2% acetic acid and stored in 20% methanol.

In test [2] the target is T2, albumin (Homo sapiens, UniProt P02768).
T2 construct: from tissue; host or cells: human plasma (fibrinogen-depleted or F1-Apo-depleted)
Briefly: Albumin in AKVSKG / D-WWLHIN evaluation (Example 7). In kind it is binding. The note with it: for binding of albumin in plasma: initial evaluation. As for the experimental part: as §1

The target in test [3] is T1, API. Briefly: Primary screening of 6-mer library for API-binding ligands. The note with it: bead screening, immunodetection / radiolabel. As for the experimental part: Peptide libraries attached to Toyopearl-AF Amino 650M resin or Tentagel resin were evaluated with 14C-labeled fibrinogen and API. All steps were performed at room temperature. Specifically, 20 mg of Toyopearl resin beads or 40 mg of Tentagel resin beads were suspended in 20% methanol for a minimum of 2 hours in 15 ml conical polypropylene tubes (Corning). After rinsing with distilled water, the resin beads were equilibrated in 0.15 M NaCl, 0.020 M sodium citrate, pH 7.3. The resin beads were then blocked for 2 hours with 1% casein (Sigma) in 0.15M NaCl, 0.020M sodium citrate, pH 7.3. Following blocking, the resin beads were centrifuged and the supernatant removed. A solution containing 1 mM of C^14-labeled fibrinogen or 30 μM of C^14-labeled API was applied to the resin beads in the blocking solution in the presence of 0.1% Tween-20 (Sigma). The materials were incubated for 2 hours. The resin beads were washed with 0.15 M NaCl, 0.020 M sodium citrate, 0.05% Tween-20, pH 7.3, in a batch method (fibrinogen ligands) or in disposable BioRad 10 ml columns (API ligands) until radiation counts reached the background level of less than 40 DPM. The resin beads were divided into separate tubes to obtain approximately 5–10 mg of resin beads per sheet. This was accomplished by mixing each aliquot of resin beads with 20–22 ml of 1% low melting agarose solution (Sigma) at less than 40° C., and rapidly pouring the mixture onto GelBond® film sheets (BMA Cat. No. 53749, 16×18 cm; Cat. No. 53759, 12.5×24.5 cm). Spreading of the resin beads to the edge of the gel sheets was prevented by creating frames (about 23 cm×about 10 cm or about 15 cm×about 15 cm) with several layers of masking tape. About 20–22 ml of resin bead-agarose mixture was plated on each GelBond sheet. Special care was taken to spread the beads in an even monolayer to facilitate identification and isolation of individual “hot” beads. The agarose gel was then air-dried overnight and placed, bead side down, on X-ray film (Kodak Biomax MR). The agarose and autoradiography film were exposed for 4–14 days followed by a second exposure of 7 days in an about 20 cm×about 25 cm stainless steel cassette. Afterwards, the films were taped together and marked with several staple holes to ensure proper alignment of beads in agarose to film. After the films were developed, the positive beads that appeared on both films were identified under the microscope and picked by aligning the developed film(s) and agarose gel via the staple holes. Beads to be sequenced were carefully picked by cutting a square trench around the bead with a scalpel, and hydrating this area with distilled water. […]

The target in test [4] is T1, API. Description: Purification of API from F1-Apo-depleted plasma on HFVAPH column (Example 6). In kind it is binding. The procedure: (§2) Fibrinogen and Apo-A1 lipoprotein-depleted plasma (prepared in Example 5) was loaded at a linear velocity of 30 cm/hour (0.4 ml/min; RT=5.1) onto 2.0 ml column (CF=0.785 cm^2) that had been equilibrated with 0.14 M NaCl, 0.020 M sodium citrate, pH 7.0 (EQ buffer). After the column was washed with EQ buffer and 2.0 M NaCl, 0.020 M sodium citrate, pH 6.0, to baseline, the API protein was eluted with 2.0 M NaCl, 1% Tween 20, 0.020 M sodium citrate, pH 6.0. The column was regenerated with 2.0 M guanidine-HCl, 2% Sarkosyl and 2% acetic acid and stored in 20% methanol. SDS-PAGE analysis of in-process samples (reduced and non-reduced samples) was performed using a Novex 8–16% gradient gel. Not all of the API was quantitatively eluted, but could be eluted using 2M guanidine. Purification of API protein to approximately 70% purity was accomplished with ligand HFVAPH (SEQ ID NO: 46) (isolated from an L-Library).

The target of test [5] is T2, albumin. Briefly: Albumin in HFVAPH column run (Example 6). In kind it is binding. As for the experimental part:
as §2

Another test deals with T3, Apo-A1 lipoprotein (Homo sapiens, UniProt P02647).
T3 construct: from tissue; host or cells: human plasma (whole or fibrinogen-depleted)
T3 sequence (P02647 25-267 limits assumed): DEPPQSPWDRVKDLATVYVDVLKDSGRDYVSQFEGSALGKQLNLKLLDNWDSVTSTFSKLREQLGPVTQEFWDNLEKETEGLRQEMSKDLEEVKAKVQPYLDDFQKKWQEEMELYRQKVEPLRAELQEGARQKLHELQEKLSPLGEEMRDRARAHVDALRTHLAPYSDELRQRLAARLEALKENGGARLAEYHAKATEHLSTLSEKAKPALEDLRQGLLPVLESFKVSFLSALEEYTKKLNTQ
Description: Apo-A1 lipoprotein purification from fibrinogen-depleted plasma on peptide resin column (Example 4). It is filed as binding. As for the experimental part: Apo-A1 lipoprotein purification was accomplished with D-WWLHIN (SEQ ID NO: 33) peptides and several analogs. Indeed, about 100% Apo-A1 lipoprotein depletion from plasma was repeatedly obtained with D-WWLHAN (SEQ ID NO: 56) and D-WWLHIN (SEQ ID NO: […]). Fourteen milliliters of fibrinogen-depleted plasma was loaded onto a 2.3 ml column (CF=0.785 cm^2) at 0.4 ml/min. (LV=30 cm/H; RT=5.8) that had been equilibrated with 0.14 M NaCl, 0.020 M sodium citrate, pH 7.0 (EQ buffer). After the column was washed with EQ buffer to baseline, Apo-A1 lipoprotein was eluted with 2.0 M NaCl, 1% Tween-20, 0.020M sodium citrate, pH 7.0. The column was regenerated with 2.0 M guanidine-HCl, 2% Sarkosyl, and 2% acetic acid and stored in 20% methanol.

The mark [6] stands for this setting: Elution Pool (without dialysis).

Non-standard residues stand in square brackets, D forms with d. No end group written: not given here. A value given as a limit tells only on which side of the number the result lay.

T1 sequence (P01009 25-418): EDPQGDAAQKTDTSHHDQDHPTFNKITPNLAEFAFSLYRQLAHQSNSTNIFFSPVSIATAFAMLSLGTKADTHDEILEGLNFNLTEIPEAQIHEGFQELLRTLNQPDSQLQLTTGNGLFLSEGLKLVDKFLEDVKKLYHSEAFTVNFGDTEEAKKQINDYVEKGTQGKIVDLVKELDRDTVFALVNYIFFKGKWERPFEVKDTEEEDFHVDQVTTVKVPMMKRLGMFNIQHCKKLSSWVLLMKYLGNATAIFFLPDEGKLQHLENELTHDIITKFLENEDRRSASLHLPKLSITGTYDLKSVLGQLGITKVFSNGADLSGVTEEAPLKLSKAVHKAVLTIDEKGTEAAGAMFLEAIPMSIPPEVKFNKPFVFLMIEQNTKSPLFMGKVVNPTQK

For the substance “AKVSKG ([dA]KVSKG; not fully specified (residues 2, 3, 4, 5))”, in the test with API [1] (2.0 M NaCl elution pool, nephelometric analysis), the “captured API protein recovered” value amounted to 71%. Moreover, the API in the test with API [1] (Elution (1% Tween)) is 0.05 mg/mL; with API [1] (Elution (2 M NaCl)), 0.76 mg/mL; in the test with API [1] (Flow through + Post Wash, plasma load 10.7 ml, 1.19 mg/ml, 50 mM caproic acid) it was 0.07 mg/mL; in the test with API [1] (Wash (0.3 M NaCl)) it was 0.11 mg/mL; in the test with API [1] (Wash, first 2.0 ml fraction), 0.06 mg/mL; in the test with API [1] (Wash, second 2.0 ml fraction), under 0.04 mg/mL. Also, the “Total API” value with API [1] (Elution (1% Tween)) is listed as 0.5 mg; in the test with API [1] (Elution (2 M NaCl)), 7.6 mg; with API [1] (Flow through + Post Wash, load 12.7 mg) it was 2.0 mg; with API [1] (Wash (0.3 M NaCl)), 1.3 mg; with API [1] (Wash, first 2.0 ml fraction) it was 0.1 mg. In the test with API [1] (densitometric analysis), the “purity of the API eluate” value turned out to be 85%. For the same substance, the Albumin with albumin [2] (Elution (1% Tween)) was under 0.02 mg/mL; in the test with albumin [2] (Flow through + Post Wash, nephelometric determination, load 20 mg/ml) it was 7.8 mg/mL; with albumin [2] (Wash (0.3 M NaCl)), 0.63 mg/mL; with albumin [2] (Wash, first 2.0 ml fraction), 0.14 mg/mL; with albumin [2] (Wash, second 2.0 ml fraction), 0.06 mg/mL. Besides, in the test with albumin [2] (in the presence of 50 mM caproic acid), the “capture of albumin from F1-Apo depleted plasma” value is “prevented”. Besides, the “binding of albumin in plasma” value with albumin [2] is reported as “binds albumin in addition to API protein”. Also, the “identified as API-binding peptide ligand from the 6-mer library” value (“identified as API-binding peptide ligand” for short) with API [3] is given as “API-binding”.

With HFVAPH, the “purity of purified API protein” value with API [4] was “approximately 70%”. For the same substance, the API is 0.1 mg/mL with API [4] (2 M Guanidine #23); 0.15 mg/mL with API [4] (Elution Pool (with dialysis), 2.0 M NaCl, 1% Tween 20); 0.21 mg/mL with API [4] (Elution Pool (without dialysis), 2.0 M NaCl, 1% Tween 20); 0.21 mg/mL in the test with API [4] (Flow through, load 9.5 ml, 0.74 mg/ml); under 0.04 mg/mL with API [4] (Postwash). In addition, the “Total API” value in the test with API [4] (2 M Guanidine #23) worked out at 0.4 mg; with API [4] (Elution Pool (with dialysis)), 1.2 mg; in the test with API [4] (setting [6]), 1.68 mg; with API [4] (Flow through, load 7.03 mg) it was 3.36 mg. The Albumin is under 0.02 mg/mL with albumin [5] (2 M Guanidine #23); under 0.02 mg/mL in the test with albumin [5] (Elution Pool (with dialysis)); under 0.02 mg/mL with albumin [5] (setting [6]); 12.6 mg/mL with albumin [5] (Flow through, load 22.6 mg/ml); 0.93 mg/mL with albumin [5] (Postwash). The “albumin binding from plasma” value with albumin [5] (in the presence of sodium citrate) is given as “does not bind albumin”. Also, the “identified as API-binding peptide ligand” value with API [3] is on record as “API-binding”.

With “WWLHIN ([dW]WLHIN; not fully specified (residues 2, 3, 4, 5, 6)) [D-WWLHIN]”, the “Apo-A1 lipoprotein depletion from plasma” value in the test with Apo-A1 lipoprotein is given as “about 100%”. For the same substance, in the test with albumin [2] (in the presence of 1.0–2.2 M NaCl), the “capture of albumin from F1-Apo depleted plasma” value was “prevented”. Moreover, the “binding of albumin in plasma” value with albumin [2] is on record as “binds albumin in addition to API protein”. The “identified as API-binding peptide ligand” value with API [3] was “API-binding”.
